Results from US6867012B2, “Determination method of biological component and reagent kit used therefor” (Toyo Boseki Kabushiki Kaisha, priority 2000, dated 2005).

Assay: Activity measurement of betaine-homocysteine methyltransferase (methionine produced, absorbance at 520 nm)
Assay type: biochemical
Details: 37° C., 1 h, pH 7.5; 1 U = 1 μmole of methionine per 1 h
Procedure: • reagent A 50 mM potassium phosphate buffer (pH 7.5) • reagent B 100 mM DL-homocysteine solution (dissolved in reagent A) • reagent C 100 mM betaine (dissolved in reagent A) • reagent D 0.2% aqueous pentacyanoanmineiron(III) sodium solution • reagent E acetic acid • reagent F 10% aqueous sodium nitrite solution <Measurement Conditions>
After the completion of the reaction, reagent D (5 ml) is added and the mixture is stirred. After standing for 1 min, 1 ml each of reagent E and reagent F were added in this order and the mixture is stirred. After standing for 30 min at room temperature, absorbance at 520 nm is measured. Using L-methionine dissolved in reagent A instead of the enzyme solution, absorbance is measured in the same manner and a standard curve is drawn, from which the amount of methionine produced by the enzymatic reaction is measured.

B1: betaine-homocysteine methyltransferase: Human-derived enzyme (EC 2.1.1.5) expressed from human liver cDNA in E. coli BL21(DE3) and purified (protein, UniProt Q93088 1-406, looked up)
Betaine--homocysteine …: MPPVGGKKAKKGILERLNAGEIVIGDGGFVFALEKRGYVKAGPWTPEAAVEHPEAVRQLHREFLRAGSNVMQTFTFYASEDKLENRGNYVLEKISGQEVNEAACDIARQVADEGDALVAGGVSQTPSYLSCKSETEVKKVFLQQLEVFMKKNVDFLIAEYFEHVEEAVWAVETLIASGKPVAATMCIGPEGDLHGVPPGECAVRLVKAGASIIGVNCHFDPTISLKTVKLMKEGLEAARLKAHLMSQPLAYHTPDCNKQGFIDLPEFPFGLEPRVATRWDIQKYAREAYNLGVRYIGGCCGFEPYHIRAIAEELAPERGFLPPASEKHGSWGSGLDMHTKPWVRARARKEYWENLRIASGRPYNPSMSKPDGWGVTKGTAELMQQKEATTEQQLKELFEKQKFKSQ
- specific activity of purified enzyme standard product: about 2.1 U/mg protein
